Read-outs that look alike come from different tables or passages of the source.
Key:
Protease X = type: biochemical, Streptomyces lividans; details: for effect of additive on the protease's activity: additive at 20 mM
Procedure: (§1) The characteristics of the protease reaction catalyzed by this enzyme were determined using the synthetic substrate assay where various synthetic substrates are dissolved at a concentration of 100 mg/ml in dimethylsulfoxide (DMSO). 200 μl aliquots from bacterial culture supernatants were mixed with 780 μl of 5 mM Tris, 25 mM NaCl, pH 7, and incubated at the desired temperature Digestions were then initiated by the addition of 20 μl of substrate and the rate of absorbance at 405 nm was followed for several minutes.
^a The assays were performed for 2 min. at 65° C. at pH 7.5.

azocasein = azocasein assay; type: biochemical; details: longer incubation times
Procedure: After washing the column with buffer, the dialysed protein sample was loaded onto the column. The protein was eluted using a linear gradient of 0.0 to 0.5M NaCl. The eluate's A280 was monitored and 8 ml fractions were collected. […] Following the incubation, the assay reaction was terminated by the addition of 200 μl of 10% trichloroacetic acid and incubation at room temperature for several minutes. The solutions were then neutralized by adding 200 μl 0.2N NaOH to each sample. Samples were centrifuged 2 min. The supernatants were removed and the activity of the fractions was determined from the increase in absorbance at 420 nm.

[1] = synthetic substrate assay of protease-containing S. lividans (pHL45) broth; type: biochemical; details: for Activity (dA/min): control broth activity subtracted
Procedure: as §1
Here, the broth from recombinant S. lividans containing pHL45, as well as the broth from an identical S. lividans culture containing a control plasmid only (pIJ699), were compared for proteolytic activity by directly assaying activity in the presence of several different substrates. This experiment was conducted at 37° C. pH 7.0 and 65° C. pH 7 5, in the presence of 10 mM calcium. The substrates tested were: succinyl-ala-ala-pro-phe-pNitroanilide, succinyl-tyr-leu-val-pNitroanilide, ala-pNitroanilide, and leu-pNitroanilide. […] The temperature optimum for the proteolytic reaction was determined using succinyl-ala-ala-pro-phe-pNitroanilide in 10 mM Tris, 25 mM NaCl, pH 7.0.

proteins = test: peptide mapping of the protease; type: biochemical; details: fragments generated during peptide mapping of the protease
[2] = 20 mM additive, 2 min. at 65° C. at pH 7.5, 0.170 without additive

For `[Ca+2].[Cl-].[Cl-]` [CaCl2], the “Protease activity (dA/min) in presence of additive” value (shortened to “Protease activity (dA/min)”) (Protease X; 5 mM additive, 2 min. at 65° C. at pH 7.5, 0.170 without additive) was 0.235 dA/min, the “Protease activity (dA/min)” value (Protease X; [2]) was 0.251 dA/min and the “effect of additive on the protease's activity” value (Protease X; 65° C., pH 7.5) was “enhanced”.

With `O=C(O)CN(CCN(CC(=O)O)CC(=O)O)CC(=O)O` [EDTA, reference compound] the “Protease activity (dA/min)” value (Protease X; pH 7.5) was 0.120 dA/min.

With `[Cl-].[Cl-].[Mg+2]` [MgCl2] the “Protease activity (dA/min)” value (Protease X; [2]) was 0.250 dA/min and the “effect of additive on the protease's activity” value (Protease X; 65° C., pH 7.5) was “appears to enhance”.

In the case of `O=S(=O)(F)Cc1ccccc1` [PMSF, reference compound], the “Protease activity (dA/min)” value (Protease X; 1 mM additive, 2 min. at 65° C. at pH 7.5, 0.170 without additive) is reported as 0.000 dA/min and the “effect of additive on the protease reaction” value (Protease X; addition of PMSF, 65° C., pH 7.5) is reported as “totally inhibited”.

B1: Protease X: novel protease [SEQ ID NO: 2] secreted into the culture medium by S. lividans (protein)
chain: MRITLPLLSTAVGLGLTAAVLGTGPAATAAAPQEPVRAAQLGYQPSAGSGEDAAANRAFFEAVVKSVAEKRAANPSAAAAVTVYYSATNAPSFRSQISRSAQIWNSSVSNVRLAESSSGADFAYYEGNDSRGSYASTDGHGSGYIFLDYRQNQQYDSTRVTAHETGHVLGLPDHYSGPCSELMSGGGPGPSCTNPYPNSTERSRVNQLWAYGFQAALDKALEKASQR
With B1 the “temperature optimum in the azocasein assay” value (azocasein) was 60 °C, the “temperature optimum for cleavage of succinyl-ala-ala-pro-phe-pNitroanilide” value ([1]; 10 mM Tris, 25 mM NaCl, pH 7.0) was 65 °C and the “time for which catalytic rate remains linear” value ([1]; 65° C.) was “at least 2 min”. For the same molecule, the pH optimum ([1]; 65° C. reaction) was 7.5 pH, the “thermal stability of the activity” value ([1]; 70° C., initial catalytic rate very fast, enzyme apparently becomes denatured) was “activity drops off dramatically” and the “Activity (dA/min)” value ([1]; Temperature 30.000, 10 mM Tris, 25 mM NaCl, pH 7.0) was 0.008 dA/min. For the same molecule, the “Activity (dA/min)” value ([1]; Temperature 40.000, 10 mM Tris, 25 mM NaCl, pH 7.0) was 0.017 dA/min, the “Activity (dA/min)” value ([1]; Temperature 50.000, 10 mM Tris, 25 mM NaCl, pH 7.0) was 0.042 dA/min and the “Activity (dA/min)” value ([1]; Temperature 60.000, 10 mM Tris, 25 mM NaCl, pH 7.0) was 0.074 dA/min. For the same molecule, the “Activity (dA/min)” value ([1]; Temperature 65.000, 10 mM Tris, 25 mM NaCl, pH 7.0) was 0.085 dA/min, the “Activity (dA/min)” value ([1]; Temperature 70.000, 10 mM Tris, 25 mM NaCl, pH 7.0) was 0.047 dA/min and the “Activity (dA/min)” value ([1]; no additive, 2 min. at 65° C. at pH 7.5) was 0.170 dA/min. The “proteolytic activity on substrate compared with control broth (pIJ699)” value ([1]; only substrate of four tested, 37° C. pH 7.0 and 65° C. pH 7 5, 10 mM calcium) was “showed activity above that of the control”, the “Activity (dA/min)” value ([1]; pH 6.000, 65° C. reaction) was 0.048 dA/min and the “Activity (dA/min)” value ([1]; pH 7.000, 65° C. reaction) was 0.085 dA/min. For the same molecule, the “Activity (dA/min)” value ([1]; pH 7.500, 65° C. reaction) was 0.190 dA/min, the “Activity (dA/min)” value ([1]; pH 8.000, 65° C. reaction) was 0.105 dA/min and the cleavage site preference (proteins) was “preferentially processes proteins amino-terminally of tyrosine”.

Source: US5516685A, “Isolation and characterization of a novel protease from Streptomyces lividans” (Amgen Inc., priority 1994, dated 1996)
